# Experimental data as given in paper PMC9176245.
# Several values for one entry are separate records, joined by “and”; a condition that tells them apart may be missing. Equal values may be shown once.
# Columns and labels:
# Assay in all cases: filter binding
# [1] = molecular target: T1, Cbf5;Nop10;Gar1;Nhp2 (Saccharomyces cerevisiae;Saccharomyces cerevisiae;Saccharomyces cerevisiae;Saccharomyces cerevisiae) (UniProt P33322+Q6Q547+P28007+P32495); conditions: 20 mM HEPES-KOH pH 7.4, 150 mM NaCl, 1.5 mM MgCl2, 10% glycerol, 30°C, 10 min; nitrocellulose filtration
# T1 sequence 1: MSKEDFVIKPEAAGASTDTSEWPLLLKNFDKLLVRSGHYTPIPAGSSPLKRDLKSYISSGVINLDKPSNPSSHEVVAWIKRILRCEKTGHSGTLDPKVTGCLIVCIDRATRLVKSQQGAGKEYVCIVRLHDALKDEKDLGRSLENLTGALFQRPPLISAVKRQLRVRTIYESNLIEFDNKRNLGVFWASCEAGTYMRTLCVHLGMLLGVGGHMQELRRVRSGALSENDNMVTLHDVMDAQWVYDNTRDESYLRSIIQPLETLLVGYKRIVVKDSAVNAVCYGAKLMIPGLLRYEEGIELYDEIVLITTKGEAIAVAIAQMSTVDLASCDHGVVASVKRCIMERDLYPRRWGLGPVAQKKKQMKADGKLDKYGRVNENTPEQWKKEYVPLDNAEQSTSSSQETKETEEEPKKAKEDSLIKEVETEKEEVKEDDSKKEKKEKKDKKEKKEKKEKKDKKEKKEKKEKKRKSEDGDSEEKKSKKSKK
# T1 sequence 2: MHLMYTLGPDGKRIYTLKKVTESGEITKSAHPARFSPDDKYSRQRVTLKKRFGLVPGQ
# T1 sequence 3: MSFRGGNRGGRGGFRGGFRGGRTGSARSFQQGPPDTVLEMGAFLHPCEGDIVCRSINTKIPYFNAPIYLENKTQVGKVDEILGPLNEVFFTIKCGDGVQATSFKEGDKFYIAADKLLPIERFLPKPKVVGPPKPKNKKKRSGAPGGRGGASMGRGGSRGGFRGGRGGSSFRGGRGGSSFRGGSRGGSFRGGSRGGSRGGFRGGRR
# T1 sequence 4: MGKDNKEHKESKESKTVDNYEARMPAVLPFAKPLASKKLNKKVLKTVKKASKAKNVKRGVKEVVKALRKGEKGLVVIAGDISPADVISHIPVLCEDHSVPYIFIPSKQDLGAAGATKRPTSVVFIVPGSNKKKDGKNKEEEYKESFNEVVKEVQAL
# [2] = molecular target: T2, Utp23 (Saccharomyces cerevisiae?) (UniProt Q12339); conditions: 20 mM HEPES-KOH pH 7.4, 150 mM NaCl, 1.5 mM MgCl2, 10% glycerol, 30°C, 10 min; nitrocellulose filtration
# T2 sequence: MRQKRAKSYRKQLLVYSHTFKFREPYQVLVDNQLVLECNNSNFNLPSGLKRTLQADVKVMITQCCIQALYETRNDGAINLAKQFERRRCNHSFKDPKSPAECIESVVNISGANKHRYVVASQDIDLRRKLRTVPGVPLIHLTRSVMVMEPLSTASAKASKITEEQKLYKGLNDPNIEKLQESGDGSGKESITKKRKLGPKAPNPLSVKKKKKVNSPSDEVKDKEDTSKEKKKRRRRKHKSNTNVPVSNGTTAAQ
# [3] = molecular target: T3, Cbf5;Nop10;Gar1 (Saccharomyces cerevisiae;Saccharomyces cerevisiae;Saccharomyces cerevisiae) (UniProt P33322+Q6Q547+P28007); conditions: no Nhp2; single replicate; 20 mM HEPES-KOH pH 7.4, 150 mM NaCl, 1.5 mM MgCl2, 10% glycerol, 30°C, 10 min; nitrocellulose filtration
# T3 sequence 1: T1 sequence 1
# T3 sequence 2: T1 sequence 2
# T3 sequence 3: T1 sequence 3
# [4] = molecular target: T4, Nhp2 (Saccharomyces cerevisiae) (UniProt P32495); conditions: Nhp2 alone, 20 mM HEPES-KOH pH 7.4, 150 mM NaCl, 1.5 mM MgCl2, 10% glycerol, 30°C, 10 min, nitrocellulose filtration
# T4 sequence: T1 sequence 4
substance,measurement,setting,value
GGGCCGACUAGGGAUCGGGUGGUGUUUUUUUAAUGACCCACUCGGCACCUUACGAGAAAUCAAAGUCUUUGGGU [H25/26],Kd,[1],92 nM
GGGUUAAUAGGGACGGUCGGGGGCAUCAGUAUUCAAUUGUCAGAGGUGAAAUUCUUGGAUUUAUUGAAGACUAACUACUGCGAAAGCAUUUGCCAAGGACGUUUUC [H22/23],Kd,[1],84 nM
same,Kd,[2],8.8 nM
mitochondrial tRNAMet,Kd,[1],746 nM
same,Kd,[2],< 2 nM
snR30 full-length,Kd,[3],1.2 nM
same,Kd,[1],0.9 nM
same,Kd,[2],17.5 nM
same,Kd,[4]; replicate 1,116 nM
same,Kd,[4]; replicate 2,212 nM
snR81,Kd,[2],4.7 nM
GGGAUUUUUUCGUGUACUGGAUUUCCAACGGGGCCUUUCCUUCUGGCUAACCUUGAGUCCUUGUGGCUCUUGGCGAACCAGGA [C2-ES6H1],Kd,[1],405 nM and 560 nM
